The record followed here is the supplement of paper PMC10567573.

The labels stand for the following.
B1: PRKX (parent)
chain: KLLVVDRTRRLGNMKNGANDVKHH
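Further: lentivirally expressed fusions sorted by FACS into six bins by GFP to DsRed ratio, PSI derived from sequencing read proportions per bin multiplied by bin number.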

In this data set the parent is B1. Briefly: protein stability index of a GFP-peptide fusion (GPS, HEK-293T) (PSI 1-6); higher = more stable. The conditions noted are these: c terminus: a fixed tail appended.
Turning to KLQVVDRTRRLGNMKNGANDVKHH, the protein stability index amounted to 3.68. For KLMVVDRTRRLGNMKNGANDVKHH, the protein stability index worked out at 3.66. With KLIVVDRTRRLGNMKNGANDVKHH, the protein stability index came out at 3.31. Regarding KLGVVDRTRRLGNMKNGANDVKHH, the protein stability index turned out to be 3.93.

Regarding KLFVVDRTRRLGNMKNGANDVKHH, the protein stability index worked out at 2.72.

As to KLEVVDRTRRLGNMKNGANDVKHH, the protein stability index is 4.33. Consider KLNVVDRTRRLGNMKNGANDVKHH, for which the protein stability index is 3.62. For the variant KLVVVDRTRRLGNMKNGANDVKHH, the protein stability index is 2.86. As to KLTVVDRTRRLGNMKNGANDVKHH, the protein stability index was 4.16. As to KLCVVDRTRRLGNMKNGANDVKHH, the protein stability index is 3.74. With KLRVVDRTRRLGNMKNGANDVKHH, the protein stability index is 3.87.

With KLAVVDRTRRLGNMKNGANDVKHH, the protein stability index was 3.92. As to KLYVVDRTRRLGNMKNGANDVKHH, the protein stability index was found to be 2.69. For KLSVVDRTRRLGNMKNGANDVKHH the value was 4.29; for KLWVVDRTRRLGNMKNGANDVKHH, 3.29; for KLPVVDRTRRLGNMKNGANDVKHH, 3.72. Regarding KLKVVDRTRRLGNMKNGANDVKHH, the protein stability index amounted to 3.55. For KLHVVDRTRRLGNMKNGANDVKHH the value was 4; for KLDVVDRTRRLGNMKNGANDVKHH, 4.38; for KLLKVDRTRRLGNMKNGANDVKHH, 2.7. For KLLNVDRTRRLGNMKNGANDVKHH, the protein stability index came to 3.6. For KLLTVDRTRRLGNMKNGANDVKHH the value was 3.4; for KLLDVDRTRRLGNMKNGANDVKHH, 3.77; for KLLPVDRTRRLGNMKNGANDVKHH, 3.87. With KLLHVDRTRRLGNMKNGANDVKHH, the protein stability index was 3.62. On to KLLSVDRTRRLGNMKNGANDVKHH, for which the protein stability index was found to be 3.65. Turning to KLLLVDRTRRLGNMKNGANDVKHH, the protein stability index stood at 3. Regarding KLLYVDRTRRLGNMKNGANDVKHH, the protein stability index is 3.32. For KLLWVDRTRRLGNMKNGANDVKHH the value was 2.66; for KLLGVDRTRRLGNMKNGANDVKHH, 3.32; for KLLMVDRTRRLGNMKNGANDVKHH, 2.57. Take KLLIVDRTRRLGNMKNGANDVKHH: the protein stability index is 2.46. KLLAVDRTRRLGNMKNGANDVKHH: the protein stability index turned out to be 3.31.

As to KLLQVDRTRRLGNMKNGANDVKHH, the protein stability index amounted to 3.19. Regarding KLLEVDRTRRLGNMKNGANDVKHH, the protein stability index turned out to be 3.46. Turning to KLLCVDRTRRLGNMKNGANDVKHH, the protein stability index was 3.17. Consider KLLRVDRTRRLGNMKNGANDVKHH, for which the protein stability index is 2.86. KLLFVDRTRRLGNMKNGANDVKHH: the protein stability index stood at 2.61. For KLLVCDRTRRLGNMKNGANDVKHH the value was 3.72.

Take KLLVEDRTRRLGNMKNGANDVKHH: the protein stability index is 4.08. With KLLVWDRTRRLGNMKNGANDVKHH, the protein stability index is 2.33. With KLLVPDRTRRLGNMKNGANDVKHH, the protein stability index was found to be 3.62. On to KLLVIDRTRRLGNMKNGANDVKHH, for which the protein stability index was 2.33.

Consider KLLVQDRTRRLGNMKNGANDVKHH, for which the protein stability index was found to be 3.11. For KLLVSDRTRRLGNMKNGANDVKHH, the protein stability index was 3.62. As to KLLVGDRTRRLGNMKNGANDVKHH, the protein stability index worked out at 3.32. For the variant KLLVRDRTRRLGNMKNGANDVKHH, the protein stability index was found to be 3.31. Regarding KLLVMDRTRRLGNMKNGANDVKHH, the protein stability index came out at 2.95. Regarding KLLVADRTRRLGNMKNGANDVKHH, the protein stability index worked out at 3.74. As for KLLVTDRTRRLGNMKNGANDVKHH, the protein stability index amounted to 3.67. For KLLVYDRTRRLGNMKNGANDVKHH the value was 2.61.

For KLLVKDRTRRLGNMKNGANDVKHH, the protein stability index worked out at 3.56. On to KLLVDDRTRRLGNMKNGANDVKHH, for which the protein stability index came out at 4.07. For KLLVLDRTRRLGNMKNGANDVKHH the value was 2.6; for KLLVFDRTRRLGNMKNGANDVKHH, 2.65. In the case of KLLVNDRTRRLGNMKNGANDVKHH, the protein stability index stood at 3.3. Take KLLVHDRTRRLGNMKNGANDVKHH: the protein stability index turned out to be 3.41. As for KLLVVARTRRLGNMKNGANDVKHH, the protein stability index was 2.19. KLLVVERTRRLGNMKNGANDVKHH: the protein stability index is 2.94. For KLLVVCRTRRLGNMKNGANDVKHH the value was 2.01; for KTLVVDRTRRLGNMKNGANDVKHH, 3.61. Consider KGLVVDRTRRLGNMKNGANDVKHH, for which the protein stability index amounted to 4.1. For KDLVVDRTRRLGNMKNGANDVKHH the value was 4.03; for KRLVVDRTRRLGNMKNGANDVKHH, 3.69. Turning to KYLVVDRTRRLGNMKNGANDVKHH, the protein stability index turned out to be 3.04. For the variant KPLVVDRTRRLGNMKNGANDVKHH, the protein stability index was determined as 4.29. For KQLVVDRTRRLGNMKNGANDVKHH, the protein stability index is 4.39. Regarding KHLVVDRTRRLGNMKNGANDVKHH, the protein stability index worked out at 3.68. On to KKLVVDRTRRLGNMKNGANDVKHH, for which the protein stability index turned out to be 3.99.

For the variant KVLVVDRTRRLGNMKNGANDVKHH, the protein stability index amounted to 3.52. On to KWLVVDRTRRLGNMKNGANDVKHH, for which the protein stability index was found to be 2.87. Regarding KNLVVDRTRRLGNMKNGANDVKHH, the protein stability index came to 4.03. Take KALVVDRTRRLGNMKNGANDVKHH: the protein stability index is 3.84.

Consider KSLVVDRTRRLGNMKNGANDVKHH, for which the protein stability index came to 4.13. Turning to KILVVDRTRRLGNMKNGANDVKHH, the protein stability index worked out at 2.99. For KCLVVDRTRRLGNMKNGANDVKHH the value was 3.57; for KFLVVDRTRRLGNMKNGANDVKHH, 3.22; for KELVVDRTRRLGNMKNGANDVKHH, 5.03. Then KMLVVDRTRRLGNMKNGANDVKHH, with 3.5. Take ALLVVDRTRRLGNMKNGANDVKHH: the protein stability index was 2.33. For MLLVVDRTRRLGNMKNGANDVKHH the value was 1.85; for NLLVVDRTRRLGNMKNGANDVKHH, 3.45; for ILLVVDRTRRLGNMKNGANDVKHH, 1.78. As for QLLVVDRTRRLGNMKNGANDVKHH, the protein stability index came out at 3.37. With VLLVVDRTRRLGNMKNGANDVKHH, the protein stability index came to 1.82. Regarding SLLVVDRTRRLGNMKNGANDVKHH, the protein stability index stood at 3.51. As for RLLVVDRTRRLGNMKNGANDVKHH, the protein stability index came to 2.52.

Take TLLVVDRTRRLGNMKNGANDVKHH: the protein stability index was 3.45. Turning to LLLVVDRTRRLGNMKNGANDVKHH, the protein stability index was found to be 1.86. As for CLLVVDRTRRLGNMKNGANDVKHH, the protein stability index is 1.85. For FLLVVDRTRRLGNMKNGANDVKHH the value was 1.44; for WLLVVDRTRRLGNMKNGANDVKHH, 1.55; for PLLVVDRTRRLGNMKNGANDVKHH, 3.63. Take DLLVVDRTRRLGNMKNGANDVKHH: the protein stability index is 3.82.
